Experimental data: patent US20150307603A1 (MODIQUEST B V, published 2015)
Non-standard residues stand in square brackets, D forms with d. No end group written: not given here. Cit = NC(=O)NCCC[C@H](N)C(=O)O

Legend:
CFC-1 [1] = target: T1, CFC-1; assay: ELISA, Ab 2 ug/well
T1 construct: Positive control for anti-citrulline reactivity; also called cfc1 XG; Cfc1-peptide
Procedure: (§1) Biotin and citrulline-containing peptides derived from fibrinogen and vimentin were immobilized on NEUTRAVIDIN®-coated 96-well ELISA plates (0.3 μg/well). CFC-1 and CFC-0 were coated at the same concentration and served as positive and negative controls, respectively, for specific anti-citrulline reactivity and as coating controls. Non-coated wells were used to test for aspecific binding of the antibodies. […] Detection of bound anti-citrulline antibodies was performed by incubating the wells with rabbit anti-human HRP (1:2000) for 1 hour at RT followed by incubation with TMB substrate. The resulting OD (y-axis) is a measure for antibody binding.
(§2) Biotin-labeled and citrulline-containing fibrinogen and vimentin peptides (Table 5) were also tested for reactivity with the therapeutic antibodies. Peptides were coated on 96-well NEUTRAVIDIN®-ELISA plates.

msFibα XH [2] = target: T2, msFibα XH (mouse, X at position 15 = citrulline; biotin-labelled); assay: ELISA, Ab 2 ug/well
T2 peptide: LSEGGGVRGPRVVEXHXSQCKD
Procedure: as §1, §2

msFibα XG [3] = target: T3, msFibα XG (mouse, X at position 8 = citrulline; biotin-labelled); assay: ELISA, Ab 2 ug/well
T3 peptide: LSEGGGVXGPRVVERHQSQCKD
Procedure: as §1, §2

huFibα XH [4] = target: T4, huFibα XH (human, X at position 15 = citrulline; biotin-labelled); assay: ELISA, Ab 2 ug/well
T4 peptide: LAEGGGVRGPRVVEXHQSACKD
Procedure: as §1, §2

huFibα XG [5] = target: T5, huFibα XG (human, X at position 8 = citrulline; biotin-labelled); assay: ELISA, Ab 2 ug/well
T5 peptide: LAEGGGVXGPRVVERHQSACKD
Procedure: as §1, §2

msFibβ XG [6] = target: T6, msFibβ XG (mouse, also: biotin-labelled); assay: ELISA, Ab 2 ug/well
T6 construct: also called mouse fibrinogen β peptide
T6 peptide: EPTDSLDA[Cit]GHRPVDRR
Procedure: as §1, §2

msVim XS/XL [7] = target: T7, msVim XS/XL (mouse, also: biotin-labelled); assay: ELISA, Ab 2 ug/well
T7 construct: also called mouse vimentin peptide
T7 peptide: YVT[Cit]SSAV[Cit]L[Cit]SSVP
Procedure: as §1, §2

CFC-1 [8] = target: T1, CFC-1; assay: ELISA, Ab 0.08 ug/well
Procedure: as §1, §2

msFibα XH [9] = target: T2, msFibα XH; assay: ELISA, Ab 0.08 ug/well
Procedure: as §1, §2

msFibα XG [10] = target: T3, msFibα XG; assay: ELISA, Ab 0.08 ug/well
Procedure: as §1, §2

huFibα XH [11] = target: T4, huFibα XH; assay: ELISA, Ab 0.08 ug/well
Procedure: as §1, §2

huFibα XG [12] = target: T5, huFibα XG; assay: ELISA, Ab 0.08 ug/well
Procedure: as §1, §2

msFibβ XG [13] = target: T6, msFibβ XG; assay: ELISA, Ab 0.08 ug/well
Procedure: as §1, §2

msVim XS/XL [14] = target: T7, msVim XS/XL; assay: ELISA, Ab 0.08 ug/well
Procedure: as §1, §2

[15] = target: T8, huPAD2-deiminated human recombinant histone 2A (human); assay: ELISA, Ab 0.000128 ug/well
T8 construct: also called H2A/p2; histone 2A/p2
Excerpt: (§3) The resulting OD (y-axis) is a measure for antibody binding. H1-recombinant histone 1; H1/p2-huPAD2 recombinant histone 1; H1/p4-huPAD4 recombinant histone 1, and so forth (x-axis).

[16] = target: T9, human recombinant histone 2B (human); assay: ELISA, Ab 0.000128 ug/well
T9 construct: Non-deiminated; also called H2B
Excerpt: as §3

[17] = target: T10, huPAD4-deiminated human recombinant histone 2B (human); assay: ELISA, Ab 0.000128 ug/well
T10 construct: also called H2B/p4
Excerpt: as §3

[18] = target: T11, huPAD4-deiminated human recombinant histone 3 (human); assay: ELISA, Ab 0.000128 ug/well
T11 construct: also called H3/p4
Excerpt: as §3

[19] = target: human recombinant histone 4 (human, UniProt P62805 2-103); assay: ELISA, Ab 0.000128 ug/well
Excerpt: as §3

CFC-1 [20] = target: T1, CFC-1; assay: ELISA, Ab 0.000128 ug/well
Procedure: as §1, with “histone 2A” for “fibrinogen and vimentin”

[21] = target: T12, peptide no. 1 (human histone 2A) (human, also: biotin-labelled); assay: ELISA, Ab 0.000128 ug/well
T12 construct: also called peptide 1; AAASGXGKQGGK
T12 peptide: AAASG[Cit]GKQGGK
Procedure: as §1, with “histone 2A” for “fibrinogen and vimentin”

[22] = target: T13, peptide no. 3 (human histone 2A) (human, also: biotin-labelled); assay: ELISA, Ab 0.000128 ug/well
T13 construct: also called peptide 3
T13 peptide: KSRSS[Cit]AGLQFP
Procedure: as §1, with “histone 2A” for “fibrinogen and vimentin”

[23] = target: T14, peptide no. 9 (human histone 2A) (human, also: biotin-labelled); assay: ELISA, Ab 0.000128 ug/well
T14 construct: also called peptide 9
T14 peptide: DNKKT[Cit]IIPRHL
Procedure: as §1, with “histone 2A” for “fibrinogen and vimentin”

[24] = target: T15, peptide no. 10 (human histone 2A) (human, also: biotin-labelled); assay: ELISA, Ab 0.000128 ug/well
T15 construct: also called peptide 10
T15 peptide: TRIIP[Cit]HLQLAI
Procedure: as §1, with “histone 2A” for “fibrinogen and vimentin”

[25] = target: T16, peptide no. 11 (human histone 2A) (human, also: biotin-labelled); assay: ELISA, Ab 0.000128 ug/well
T16 construct: also called peptide 11
T16 peptide: LQLAI[Cit]NDEELN
Procedure: as §1, with “histone 2A” for “fibrinogen and vimentin”

[26] = target: PREDICTED: similar to 60S ribosomal protein L29 (Cell surface heparin-binding protein HIP) [Homo sapiens] (Homo sapiens); assay: IP of deiminated HEK293 lysate + MS emPAI; reference RhmAb2.101
Procedure: (§4) Beads were subjected to three washes with 1 ml IPP500, one wash with 1 ml IPP150 (10 mM Tris/HCl pH 8.0, 150 mM NaCl, 0.1% NP40 and 0.1% TWEEN®-20), and subsequently incubated at room temperature with 300 p1 deiminated HEK293 lysate for 2 hours under constant rotation. Beads were washed three times with 1 ml of IPP150, after which a small part has been used for SDS-PAGE electrophoresis to determine if the IP procedure with the HEK293 cells was successful.
(§5) The exponentially modified protein abundance index (emPAI) was calculated for all validated proteins.

[27] = target: ribosomal protein L29 [Homo sapiens] (Homo sapiens); assay: as above
Procedure: as §4, §5

B1: RhmAb2.102 (antibody, human IgG1, lambda)
heavy: not shown
light: QSVLTQPPSMSAAPGQKVTISCSGSSSNIGNNYVSWYQQVPGTAPKLLIYDDNKRPSGIPGRFSGSKSATSATLGITGLQAGDEADYYCGSWDDNLSVVLFGGGTKLTVLGQPKAAPSVTLFPPSSEELQANKATLVCLISDFYPGAVTVAWKADSSPVKAGVETTTPSKQSNNKYAASSYLSLTPEQWKSHRSYSCQVTHEGSTVEKTVAPTECS
notes: Human IgG1 lambda; also called Rhm2.102
Work on B1 yielded an OD (CFC-1 [1]) of 3.97 OD450, an OD (msFibα XH [2]) of 0.091 OD450 and an OD (msFibα XG [3]) of 1.9 OD450. It also gave an OD (huFibα XH [4]) of 0.116 OD450, an OD (huFibα XG [5]) of 1.51 OD450 and an OD (msFibβ XG [6]) of 3.15 OD450. For the same binder, the OD (msVim XS/XL [7]) was 2.77 OD450, the OD (CFC-1 [8]) was 3.03 OD450 and the OD (msFibα XH [9]) was 0.076 OD450. The OD (msFibα XG [10]) was 0.237 OD450, the OD (huFibα XH [11]) was 0.08 OD450 and the OD (huFibα XG [12]) was 0.186 OD450. It also gave an OD (msFibβ XG [13]) of 0.515 OD450, an OD (msVim XS/XL [14]) of 0.515 OD450 and an OD [15] of 0.063 OD450. It also gave an OD [16] of 0.052 OD450, an OD [17] of 0.053 OD450 and an OD [18] of 0.06 OD450. For the same binder, the OD [19] was 0.06 OD450, the OD (CFC-1 [20]) was 0.749 OD450 and the OD [21] was 0.128 OD450. For the same binder, the OD [22] was 0.063 OD450, the OD [23] was 0.055 OD450 and the OD [24] was 0.057 OD450. For the same binder, the OD [25] was 0.059 OD450, the “Ratio 102/101 (emPAI)” value [26] was 1 ratio and the “Ratio 102/101 (emPAI)” value [27] was 0.5 ratio.
